Measurements published in paper PMC4381056.

Biological target: T1, MBD3-GFP (methyl-CpG-binding domain protein 3 fused to GFP), O95983
T1 chain: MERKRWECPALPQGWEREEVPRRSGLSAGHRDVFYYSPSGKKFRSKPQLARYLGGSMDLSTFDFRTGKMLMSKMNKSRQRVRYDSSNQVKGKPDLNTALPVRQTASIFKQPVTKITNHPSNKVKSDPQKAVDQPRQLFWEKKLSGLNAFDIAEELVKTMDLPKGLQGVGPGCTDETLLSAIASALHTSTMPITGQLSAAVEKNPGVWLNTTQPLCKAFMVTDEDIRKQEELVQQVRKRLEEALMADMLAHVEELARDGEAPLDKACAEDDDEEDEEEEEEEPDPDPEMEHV
Test: photon counting histogram
Settings: remark: other sources report otherwise

dimer percentage (G1-phase): 84%
dimer percentage (G2-phase): 16%
dimer percentage (S-phase): 48%
B1: MBD3-GFP (methyl-CpG-binding domain protein 3 fused to GFP), O95983 1-291 (natural protein)
chain: MERKRWECPALPQGWEREEVPRRSGLSAGHRDVFYYSPSGKKFRSKPQLARYLGGSMDLSTFDFRTGKMLMSKMNKSRQRVRYDSSNQVKGKPDLNTALPVRQTASIFKQPVTKITNHPSNKVKSDPQKAVDQPRQLFWEKKLSGLNAFDIAEELVKTMDLPKGLQGVGPGCTDETLLSAIASALHTSTMPITGQLSAAVEKNPGVWLNTTQPLCKAFMVTDEDIRKQEELVQQVRKRLEEALMADMLAHVEELARDGEAPLDKACAEDDDEEDEEEEEEEPDPDPEMEHV
